Data reported in paper doi:10.1101/2021.03.22.436447 (bioRxiv, 2021).

Biological target: T1, spectacled caiman hemoglobin beta-type chain (Caiman crocodilus (endogenous in red …, UniProt P02131 1-146))
T1 sequence (looked up): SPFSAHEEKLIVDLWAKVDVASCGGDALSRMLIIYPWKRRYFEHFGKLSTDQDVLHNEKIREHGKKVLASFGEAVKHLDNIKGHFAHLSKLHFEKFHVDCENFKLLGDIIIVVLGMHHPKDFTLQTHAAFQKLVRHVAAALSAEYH
Assay: SEC

B1: spectacled caiman hemoglobin alpha-type chain (natural protein)
chain: not shown
Question: Does B1 bind?
Answer: binds
